According to PMC12557367, ““Precision on Two Wheels”–Structural Refinement of ^64Cu- and ^68Ga-Labeled Bicyclic Peptides Targeting Nectin‑4 for Improved Tumor Imaging: From Preclinical Development to First-in-Human Application” (Journal of Medicinal Chemistry, 2025):
Numbered stars: 1 amine (or outer) side, 2 acyl side, 3 side chain; on linkers, the order of the positions; unused ones are H or OH. Bridge positions count the residues as written; N and C are the ends. Square brackets hold non-standard residues; d marks the D form. * marks the point of attachment. 6‑TAMRA = CN(C)c1ccc2c(-c3cc(C(=O)*)ccc3C(=O)[O-])c3ccc(N(C)C)cc3[o+]c2c1; (R)‑NODAGA = O=C(O)CN1CCN(CC(=O)O)CCN([C@H](CCC(=O)*)C(=O)O)CC1; TATA = O=C(CC[*:1])N1CN(C(=O)CC[*:2])CN(C(=O)CC[*:3])C1; Mox = methoxinine, COCC[C@H](N[*:1])C(=O)[*:2]; 1Nal = N[C@@H](Cc1cccc2ccccc12)C(=O)O; Hyp = O=C(O)[C@@H]1C[C@@H](O)CN1; hArg = N=C(N)NCCCC[C@H](N)C(=O)O

T1: nectin-4 on intact HT-1376 cells (human (endogenous in HT-1376), UniProt Q96NY8 32-510)
T1 construct: also called cellular nectin-4
T1 sequence (looked up): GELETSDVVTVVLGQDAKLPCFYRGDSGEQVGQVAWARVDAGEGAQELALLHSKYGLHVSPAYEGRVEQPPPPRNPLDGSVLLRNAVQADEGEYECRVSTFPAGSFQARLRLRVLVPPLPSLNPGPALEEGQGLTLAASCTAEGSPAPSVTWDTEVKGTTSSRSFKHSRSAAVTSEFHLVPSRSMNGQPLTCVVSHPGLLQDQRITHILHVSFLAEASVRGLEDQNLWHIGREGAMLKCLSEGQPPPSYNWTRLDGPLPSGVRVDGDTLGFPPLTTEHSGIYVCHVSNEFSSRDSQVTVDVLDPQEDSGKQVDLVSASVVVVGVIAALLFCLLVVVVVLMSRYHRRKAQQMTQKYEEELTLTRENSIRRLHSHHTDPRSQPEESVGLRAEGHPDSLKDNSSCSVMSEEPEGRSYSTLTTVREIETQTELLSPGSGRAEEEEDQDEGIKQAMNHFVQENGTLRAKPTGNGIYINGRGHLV

T2: recombinant human nectin-4 (human, UniProt Q96NY8 32-349)
T2 construct: nectin-4, human, recombinant; also called complete extracellular domain of nectin-4; source: bought: R&D Systems (Catalog number 2659-N4)
T2 sequence (looked up): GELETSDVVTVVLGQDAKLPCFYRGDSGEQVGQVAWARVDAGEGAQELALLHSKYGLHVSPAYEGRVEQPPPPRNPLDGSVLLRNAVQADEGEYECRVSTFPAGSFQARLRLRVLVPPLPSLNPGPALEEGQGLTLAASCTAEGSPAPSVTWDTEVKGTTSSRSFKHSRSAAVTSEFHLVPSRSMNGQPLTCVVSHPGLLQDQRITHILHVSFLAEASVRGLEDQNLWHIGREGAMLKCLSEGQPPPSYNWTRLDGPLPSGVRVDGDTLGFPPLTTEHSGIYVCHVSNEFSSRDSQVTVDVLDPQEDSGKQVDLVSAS

B1: [64Cu]Cu-4 (peptide)
chain: {(R)‑NODAGA}-CP[1Nal][dD]C[Mox][hArg]DWSTP[Hyp]WC-NH2
modifications: linker 1-5-15 via TATA; also: NODAGA complexed with 64Cu
B2: 1a (peptide)
chain: {6‑TAMRA}-CP[1Nal][dD]CM[hArg]DWSTP[Hyp]WC-NH2
modifications: linker 1-5-15 via TATA

How the values were obtained:
[1] = biological target: T1, nectin-4 on intact HT-1376 cells; test: radioligand binding; cellular efflux: release of [64Cu]Cu-4 from intact HT-1376 cells over 4 h at 37 °C after 1 h incubation at 10 nM; two-phase decay; conditions: one partner purified
[2] = biological target: T1, nectin-4 on intact HT-1376 cells; test: radioligand binding; saturation binding on intact HT-1376 cells, 10 radioligand concentrations (0.156-80 or 0.321-160 nM), 37 °C, 1 h, PBS wash; nonspecific with 1 µM 1d; apparent (covers binding and putative internalisation); conditions: one partner purified
[3] = biological target: T3, recombinant N-terminal Ig-like V domain of nectin-4 (human); test: fluorescence polarisation; fluorescence anisotropy, direct binding of probe 1a to the N-terminal Ig-like V domain of nectin-4; same procedure as for nectin-4; conditions: both partners purified
T3 construct: nectin-4, N-terminal Ig-like V domain, recombinant; source: bought: Acro Biosystems (NE4-H82Ea)
T3 sequence (Q96NY8 whole entry): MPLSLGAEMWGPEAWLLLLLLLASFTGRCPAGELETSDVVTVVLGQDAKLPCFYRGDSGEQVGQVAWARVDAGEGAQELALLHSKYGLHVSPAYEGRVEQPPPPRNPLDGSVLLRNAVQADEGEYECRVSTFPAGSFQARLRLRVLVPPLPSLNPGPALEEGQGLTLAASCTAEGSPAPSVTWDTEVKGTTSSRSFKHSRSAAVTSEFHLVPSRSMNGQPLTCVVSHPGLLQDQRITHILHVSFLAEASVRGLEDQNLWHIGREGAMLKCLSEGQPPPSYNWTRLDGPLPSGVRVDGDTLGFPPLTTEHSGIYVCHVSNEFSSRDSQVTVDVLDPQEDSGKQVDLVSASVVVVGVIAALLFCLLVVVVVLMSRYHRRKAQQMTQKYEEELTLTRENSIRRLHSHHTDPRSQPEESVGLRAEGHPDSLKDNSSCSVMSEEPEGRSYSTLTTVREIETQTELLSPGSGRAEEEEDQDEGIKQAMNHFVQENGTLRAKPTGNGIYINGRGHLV

[4] = biological target: T2, recombinant human nectin-4; test: fluorescence polarisation; fluorescence anisotropy, direct binding: 1 nM fluorescent probe, 11 to 13 concentrations of nectin-4 (e.g. 0.06-250 nM), 37 °C, 1200 s, HEPES buffer 20 mM pH 7.4, 0.01% Tween20, NaCl, 1% DMSO; Morrison equation; conditions: both partners purified

half-life of the fast phase of cellular release [1] | Kd [2] | Kd [3] | Kd [4] | Binder
9.5 min | 6.06 nM |  |  | B1
 |  | 1.3 nM | 0.94 ± 0.09 nM | B2
